# Reference: patent publication US20250144228A1 (published 2025)
# T1: P. falciparum MSP-1 subunit p42 (plate-bound, isolated) (Plasmodium falciparum, UniProt Q8I0U8 1327-1699)
# T1 chain: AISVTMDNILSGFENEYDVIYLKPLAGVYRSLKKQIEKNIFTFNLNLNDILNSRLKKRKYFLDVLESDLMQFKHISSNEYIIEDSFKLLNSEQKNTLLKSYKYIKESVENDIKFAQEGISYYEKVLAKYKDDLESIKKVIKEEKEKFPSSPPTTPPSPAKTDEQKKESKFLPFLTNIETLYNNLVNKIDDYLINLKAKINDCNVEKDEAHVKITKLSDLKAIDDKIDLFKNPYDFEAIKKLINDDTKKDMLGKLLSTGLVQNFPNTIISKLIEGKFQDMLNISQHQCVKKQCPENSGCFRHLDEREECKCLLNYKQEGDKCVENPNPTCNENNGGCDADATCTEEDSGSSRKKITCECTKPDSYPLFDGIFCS
# T2: P. falciparum MSP-1 subunit p83 (plate-bound, isolated) (Plasmodium falciparum, UniProt Q8I0U8 20-722)
# T2 chain: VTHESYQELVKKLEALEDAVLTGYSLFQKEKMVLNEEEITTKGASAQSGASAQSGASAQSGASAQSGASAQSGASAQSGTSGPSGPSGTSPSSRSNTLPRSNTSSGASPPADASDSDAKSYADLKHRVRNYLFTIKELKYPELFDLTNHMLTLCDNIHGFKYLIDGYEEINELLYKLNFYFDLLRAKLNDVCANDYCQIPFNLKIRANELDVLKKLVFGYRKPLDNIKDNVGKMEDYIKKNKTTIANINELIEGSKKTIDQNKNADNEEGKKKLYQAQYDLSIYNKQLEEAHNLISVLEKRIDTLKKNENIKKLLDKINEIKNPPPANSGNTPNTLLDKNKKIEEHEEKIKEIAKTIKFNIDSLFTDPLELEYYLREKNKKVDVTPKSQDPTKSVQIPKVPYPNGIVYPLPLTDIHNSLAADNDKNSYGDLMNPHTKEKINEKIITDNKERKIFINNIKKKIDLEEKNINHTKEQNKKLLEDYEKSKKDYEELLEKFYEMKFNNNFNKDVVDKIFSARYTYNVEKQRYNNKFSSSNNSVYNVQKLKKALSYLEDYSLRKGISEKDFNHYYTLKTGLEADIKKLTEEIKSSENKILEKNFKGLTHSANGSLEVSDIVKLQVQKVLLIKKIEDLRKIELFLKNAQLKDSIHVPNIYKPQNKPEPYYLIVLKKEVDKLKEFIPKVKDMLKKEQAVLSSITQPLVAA
# T3: mouse polyclonal IgA (mouse, UniProt P11911)
# T3 sequence (P11911 whole entry, looked up): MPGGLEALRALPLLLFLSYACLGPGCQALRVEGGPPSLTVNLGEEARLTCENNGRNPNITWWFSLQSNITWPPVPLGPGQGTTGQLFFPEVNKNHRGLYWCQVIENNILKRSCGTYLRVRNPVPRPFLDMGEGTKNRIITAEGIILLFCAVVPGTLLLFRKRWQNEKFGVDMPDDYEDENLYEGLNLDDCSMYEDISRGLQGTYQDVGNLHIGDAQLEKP
# B1: anti-p42 A6 VHH (P. falciparum MSP-1 specific) (VHH)
# VHH: QVQLVESGGGLVQAGGSLRLSCAASARTFSYYGAAWFRQAPGKEREFVAAVSWNGDDTYYADSVKGRFTISRDNTKNTVSLQMNALKPEDTAVYYCEAAAYGRDWRQSANYVYWGQGTQVTVSS
# B2: anti-p83 B4 VHH (P. falciparum MSP-1 specific) (VHH)
# VHH: QLQLVESGGGLAQAGGSLRLSCAASGRTSSTKPMGWFRQAPGLEREFVASISWLGGSTLYSDSVKGRFTISRDNAKNTVYLQMNSLKSEDTAVYYCAGGTSAYSGRDSSRYEYWGQGTQVTVSS
# B3: SD36-biotin (VHH)
# VHH: EVQLVESGGGLVQAGGSLKLSCAASGRTYAMGWFRQAPGKEREFVAHINALGTRTYYSDSVKGRFTISRDNAKNTEYLEMNNLKPEDTAVYYCTAQGQWRAAPVAVAAEYEFWGQGTQVTVSS
# B4: VHHkappa-SD36-biotin-2 (bispecific antibody, V domains shown)
# V domain 1: QVQLVESGGGWVQPGGSLRLSCAASGFTFSDTAMMWVRQAPGKGREWVAAIDTGGGYTYYADSVKGRFTISRDNAKNTLYLQMNSLKPEDTARYYCAKTYSGNYYSNYTVANYGTTGRGTLVTVSS
# V domain 2: EVQLVESGGGLVQAGGSLKLSCAASGRTYAMGWFRQAPGKEREFVAHINALGTRTYYSDSVKGRFTISRDNAKNTEYLEMNNLKPEDTAVYYCTAQGQWRAAPVAVAAEYEFWGQGTQVTVSS
# B5: VHHkappa-SD36 (bispecific antibody, V domains shown)
# V domain 1: QVQLVESGGGWVQPGGSLRLSCAASGFTFSDTAMMWVRQAPGKGREWVAAIDTGGGYTYYADSVKGRFTISRDNAKNTLYLQMNSLKPEDTARYYCAKTYSGNYYSNYTVANYGTTGRGTLVTVSS
# V domain 2: EVQLVESGGGLVQAGGSLKLSCAASGRTYAMGWFRQAPGKEREFVAHINALGTRTYYSDSVKGRFTISRDNAKNTEYLEMNNLKPEDTAVYYCTAQGQWRAAPVAVAAEYEFWGQGTQVTVSS
# B6: VHHkappa-SD36-biotin-1 (bispecific antibody, V domains shown)
# V domain 1: QVQLVESGGGWVQPGGSLRLSCAASGFTFSDTAMMWVRQAPGKGREWVAAIDTGGGYTYYADSVKGRFTISRDNAKNTLYLQMNSLKPEDTARYYCAKTYSGNYYSNYTVANYGTTGRGTLVTVSS
# V domain 2: EVQLVESGGGLVQAGGSLKLSCAASGRTYAMGWFRQAPGKEREFVAHINALGTRTYYSDSVKGRFTISRDNAKNTEYLEMNNLKPEDTAVYYCTAQGQWRAAPVAVAAEYEFWGQGTQVTVSS
# B7: VHHkappa-SD36-biotin (genetic fusion) (bispecific antibody)
# chain: QVQLVESGGGWVQPGGSLRLSCAASGFTFSDTAMMWVRQAPGKGREWVAAIDTGGGYTYYADSVKGRFTISRDNAKNTLYLQMNSLKPEDTARYYCAKTYSGNYYSNYTVANYGTTGRGTLVTVSSAAAGGGGSGGGGSGGGGSEVQLVESGGGLVQAGGSLKLSCAASGRTYAMGWFRQAPGKEREFVAHINALGTRTYYSDSVKGRFTISRDNAKNTEYLEMNNLKPEDTAVYYCTAQGQWRAAPVAVAAEYEFWGQGTQVTVSSGGLPETGGHHHHHH
# B8: VHHkappa (mouse)-SD36-biotin (bispecific antibody)
# chain: QVQLVESGGGWVQPGGSLRLSCAASGFTFSDTAMMWVRQAPGKGREWVAAIDTGGGYTYYADSVKGRFTISRDNAKNTLYLQMNSLKPEDTARYYCAKTYSGNYYSNYTVANYGTTGRGTLVTVSSAAAGGGGSGGGGSGGGGSEVQLVESGGGLVQAGGSLKLSCAASGRTYAMGWFRQAPGKEREFVAHINALGTRTYYSDSVKGRFTISRDNAKNTEYLEMNNLKPEDTAVYYCTAQGQWRAAPVAVAAEYEFWGQGTQVTVSSGGLPETGGHHHHHH
# B9: VHHkappa (mouse)-biotin (VHH)
# VHH: QVQLVESGGGWVQPGGSLRLSCAASGFTFSDTAMMWVRQAPGKGREWVAAIDTGGGYTYYADSVKGRFTISRDNAKNTLYLQMNSLKPEDTARYYCAKTYSGNYYSNYTVANYGTTGRGTLVTVSS
# B10: VHHkappa-biotin (VHH)
# VHH: QVQLVESGGGWVQPGGSLRLSCAASGFTFSDTAMMWVRQAPGKGREWVAAIDTGGGYTYYADSVKGRFTISRDNAKNTLYLQMNSLKPEDTARYYCAKTYSGNYYSNYTVANYGTTGRGTLVTVSS
# B11: anti-p42 G11 VHH (P. falciparum MSP-1 specific) (VHH)
# VHH: QVQLVETGGGLVQAGGSLRLSCVVSGRSLILYGMGWFRQAPGKEREFVAGIVWNGGWTYYADSVKGRFTISRDTAKNTVYLQMNSLKPEDTAVYSCAAGPGDGRRRVAPAEYNYWGQGTQVTVSS
# Legend:
# [1] = target: T1, P. falciparum MSP-1 subunit p42 …; assay: ELISA
# [2] = target: T2, P. falciparum MSP-1 subunit p83 …; assay: ELISA
# [3] = target: A/Wisconsin/629-D00015/2009 (H1N1)pdm09 (influenza A virus)
# [4] = target: A/Hong Kong/8/1968 (H3N2) (influenza A virus)
# mouse IgG2b = mouse IgG2b (mouse); assay: ELISA
# hemagglutinin = hemagglutinin (influenza A virus)
# [5] = target: Influenza A virus - A/Hong Kong/8/1968 (H3N2) (influenza A virus)
# [6] = target: a monoclonal mouse IgM, κ Isotype Ctrl (mouse); assay: ELISA
# mouse polyclonal IgG = mouse polyclonal IgG (mouse); assay: ELISA
# mouse polyclonal IgA = target: T3, mouse polyclonal IgA; assay: ELISA
binder,measurement,setting,value
B1,Kd,[1],1.96 nM
B2,Kd,[2],1.81 nM
B3,Kd,[3],18.7 nM
same,Kd,[4],1.3 nM
B4,Kd,mouse IgG2b,2.4 nM
B5,Kd,hemagglutinin,15.5 nM
same,Kd,[5],0.6 nM
B6,Kd,mouse IgG2b,2 nM
B7,Kd,[3],59.7 nM
same,Kd,[4],1.8 nM
B8,Kd,[6],0.0102 nM
same,Kd,mouse polyclonal IgG,0.0083 nM
same,Kd,mouse polyclonal IgA,0.434 nM
B9,Kd,[6],0.0112 nM
same,Kd,mouse polyclonal IgG,0.0072 nM
same,Kd,mouse polyclonal IgA,0.508 nM
B10,Kd,mouse IgG2b,2.1 nM
B11,Kd,[1],0.52 nM
